How the values were obtained:
σJSnoaL_2 = target: T1, σJSnoaL_2 (Mycobacterium tuberculosis, UniProt L0TCG5 162-312); test: EMSA
T1 sequence: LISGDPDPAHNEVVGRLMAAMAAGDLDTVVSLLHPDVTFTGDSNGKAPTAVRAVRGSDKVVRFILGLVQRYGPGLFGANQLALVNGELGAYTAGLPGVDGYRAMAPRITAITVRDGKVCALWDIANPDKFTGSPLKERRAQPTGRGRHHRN

σJ = target: T2, σJ (Mycobacterium tuberculosis, UniProt L0TCG5 1-312); test: EMSA
T2 sequence: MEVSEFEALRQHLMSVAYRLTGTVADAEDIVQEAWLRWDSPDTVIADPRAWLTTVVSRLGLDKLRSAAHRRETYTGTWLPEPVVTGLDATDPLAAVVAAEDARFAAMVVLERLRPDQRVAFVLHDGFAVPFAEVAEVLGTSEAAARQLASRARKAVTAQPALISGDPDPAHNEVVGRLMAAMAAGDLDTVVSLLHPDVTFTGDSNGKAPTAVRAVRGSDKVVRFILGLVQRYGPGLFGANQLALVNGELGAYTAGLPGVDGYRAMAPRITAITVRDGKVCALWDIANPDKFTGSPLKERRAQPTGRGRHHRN

B1: wt-sigIp (dsDNA)
DNA 1: GCTGTCACATTCGGCGGGGCTGTCTCGTCCTTGA
DNA 2: TCAAGGACGAGACAGCCCCGCCGAATGTGACAGC
With B1 the binding result (σJSnoaL_2) was “no binding” and the Kd (σJ) was 4.96 ± 0.94 µM.
